The values that follow come from patent US20250262210A1 (TRUSTEES OF COLUMBIA UNIVERSITY IN THE CITY OF NEW YORK, published 2025).

Assay [1] concerns the target T1, LZTR1 R810W-FLAG (human, UniProt Q8N653 1-840).
T1 construct: Stably expressed in U87 cells by lentivirus; also called LZTR1-FLAG-R810W; LZTR1 RW; not shown: FLAG tag
T1 sequence (looked up): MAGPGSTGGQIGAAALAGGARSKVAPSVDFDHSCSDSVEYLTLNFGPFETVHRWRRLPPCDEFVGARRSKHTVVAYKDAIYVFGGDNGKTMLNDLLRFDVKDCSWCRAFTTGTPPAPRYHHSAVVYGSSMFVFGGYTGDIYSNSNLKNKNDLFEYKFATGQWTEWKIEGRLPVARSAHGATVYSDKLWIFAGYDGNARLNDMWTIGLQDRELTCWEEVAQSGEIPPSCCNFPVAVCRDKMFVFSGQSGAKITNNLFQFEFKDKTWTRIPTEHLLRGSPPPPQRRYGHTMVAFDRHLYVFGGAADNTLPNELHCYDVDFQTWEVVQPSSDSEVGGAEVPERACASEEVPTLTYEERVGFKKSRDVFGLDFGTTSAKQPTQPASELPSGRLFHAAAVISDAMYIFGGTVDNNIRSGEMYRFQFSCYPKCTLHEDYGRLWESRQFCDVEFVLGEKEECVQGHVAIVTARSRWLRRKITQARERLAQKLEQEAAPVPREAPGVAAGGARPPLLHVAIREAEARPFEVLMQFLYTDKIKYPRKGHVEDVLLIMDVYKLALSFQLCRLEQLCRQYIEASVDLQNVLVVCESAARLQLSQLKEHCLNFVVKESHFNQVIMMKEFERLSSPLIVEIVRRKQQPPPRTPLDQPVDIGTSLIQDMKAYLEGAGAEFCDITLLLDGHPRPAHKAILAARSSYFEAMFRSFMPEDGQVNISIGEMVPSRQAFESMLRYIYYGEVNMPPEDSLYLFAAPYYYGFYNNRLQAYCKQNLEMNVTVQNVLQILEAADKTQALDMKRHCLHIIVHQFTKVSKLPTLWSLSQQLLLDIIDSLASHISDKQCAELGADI
Briefly: IP/MS, LZTR1 R810W-FLAG, U87. The method in brief:
(§1)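 Read-out: spectral counts from LC-MS/MS (Orbitrap Fusion) after MaxQuant identification. Variable modifications were Met oxidation, protein N-terminal acetylation and N/Q deamidation.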

The target in assay [2] is T2, LZTR1-FLAG (human, UniProt Q8N653 1-840).
T2 construct: Expressed in HEK 293T, HeLa or U87 cells; used as cell lysate; also called LZTR1 wild type-FLAG; LZTR1 WT; not shown: FLAG tag at the C-terminus
T2 sequence (looked up): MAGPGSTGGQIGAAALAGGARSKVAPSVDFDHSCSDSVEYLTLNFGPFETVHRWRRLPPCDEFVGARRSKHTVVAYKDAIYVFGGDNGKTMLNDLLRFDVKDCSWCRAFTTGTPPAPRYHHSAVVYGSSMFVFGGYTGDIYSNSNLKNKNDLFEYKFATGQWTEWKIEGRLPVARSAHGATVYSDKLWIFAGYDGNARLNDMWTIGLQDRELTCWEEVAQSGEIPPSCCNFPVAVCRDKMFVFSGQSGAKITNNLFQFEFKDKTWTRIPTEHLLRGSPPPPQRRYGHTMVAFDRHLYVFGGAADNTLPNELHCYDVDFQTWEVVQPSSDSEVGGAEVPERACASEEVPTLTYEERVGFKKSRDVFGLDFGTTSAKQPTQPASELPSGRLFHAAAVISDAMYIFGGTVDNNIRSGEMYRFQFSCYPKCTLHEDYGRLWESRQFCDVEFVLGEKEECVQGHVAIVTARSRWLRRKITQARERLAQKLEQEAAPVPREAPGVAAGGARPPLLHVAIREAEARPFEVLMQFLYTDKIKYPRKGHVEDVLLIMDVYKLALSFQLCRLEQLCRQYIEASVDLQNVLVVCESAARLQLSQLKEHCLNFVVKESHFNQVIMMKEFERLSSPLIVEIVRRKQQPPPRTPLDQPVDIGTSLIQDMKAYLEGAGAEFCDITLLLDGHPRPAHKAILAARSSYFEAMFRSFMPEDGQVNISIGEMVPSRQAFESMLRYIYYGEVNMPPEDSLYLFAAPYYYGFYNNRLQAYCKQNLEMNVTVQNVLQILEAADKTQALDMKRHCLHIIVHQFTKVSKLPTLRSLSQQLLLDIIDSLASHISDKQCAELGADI
In words: IP/MS, LZTR1 wild type-FLAG, U87. The method in brief: as §1

B1: TRAPPC12 (other, human, UniProt Q8WVT3 1-735, looked up)
chain: MEDAGGGEETPAPEAPHPPQLAPPEEQGLLFQEETIDLGGDEFGSEENETASEGSSPLADKLNEHMMESVLISDSPNSEGDAGDLGRVRDEAEPGGEGDPGPEPAGTPSPSGEADGDCAPEDAAPSSGGAPRQDAAREVPGSEAARPEQEPPVAEPVPVCTIFSQRAPPASGDGFEPQMVKSPSFGGASEASARTPPQVVQPSPSLSTFFGDTAASHSLASDFFDSFTTSAFISVSNPGAGSPAPASPPPLAVPGTEGRPEPVAMRGPQAAAPPASPEPFAHIQAVFAGSDDPFATALSMSEMDRRNDAWLPGEATRGVLRAVATQQRGAVFVDKENLTMPGLRFDNIQGDAVKDLMLRFLGEKAAAKRQVLNADSVEQSFVGLKQLISCRNWRAAVDLCGRLLTAHGQGYGKSGLLTSHTTDSLQLWFVRLALLVKLGLFQNAEMEFEPFGNLDQPDLYYEYYPHVYPGRRGSMVPFSMRILHAELQQYLGNPQESLDRLHKVKTVCSKILANLEQGLAEDGGMSSVTQEGRQASIRLWRSRLGRVMYSMANCLLLMKDYVLAVEAYHSVIKYYPEQEPQLLSGIGRISLQIGDIKTAEKYFQDVEKVTQKLDGLQGKIMVLMNSAFLHLGQNNFAEAHRFFTEILRMDPRNAVANNNAAVCLLYLGKLKDSLRQLEAMVQQDPRHYLHESVLFNLTTMYELESSRSMQKKQALLEAVAGKEGDSFNTQCLKLA
Regarding B1, the binding result in assay [1] and in assay [2] was “binds” throughout.

B2: UFL1 (other, human, UniProt O94874 2-794, looked up)
chain: ADAWEEIRRLAADFQRAQFAEATQRLSERNCIEIVNKLIAQKQLEVVHTLDGKEYITPAQISKEMRDELHVRGGRVNIVDLQQVINVDLIHIENRIGDIIKSEKHVQLVLGQLIDENYLDRLAEEVNDKLQESGQVTISELCKTYDLPGNFLTQALTQRLGRIISGHIDLDNRGVIFTEAFVARHKARIRGLFSAITRPTAVNSLISKYGFQEQLLYSVLEELVNSGRLRGTVVGGRQDKAVFVPDIYSRTQSTWVDSFFRQNGYLEFDALSRLGIPDAVSYIKKRYKTTQLLFLKAACVGQGLVDQVEASVEEAISSGTWVDIAPLLPTSLSVEDAAILLQQVMRAFSKQASTVVFSDTVVVSEKFINDCTELFRELMHQKAEKEMKNNPVHLITEEDLKQISTLESVSTSKKDKKDERRRKATEGSGSMRGGGGGNAREYKIKKVKKKGRKDDDSDDESQSSHTGKKKPEISFMFQDEIEDFLRKHIQDAPEEFISELAEYLIKPLNKTYLEVVRSVFMSSTTSASGTGRKRTIKDLQEEVSNLYNNIRLFEKGMKFFADDTQAALTKHLLKSVCTDITNLIFNFLASDLMMAVDDPAAITSEIRKKILSKLSEETKVALTKLHNSLNEKSIEDFISCLDSAAEACDIMVKRGDKKRERQILFQHRQALAEQLKVTEDPALILHLTSVLLFQFSTHSMLHAPGRCVPQIIAFLNSKIPEDQHALLVKYQGLVVKQLVSQSKKTGQGDYPLNNELDKEQEDVASTTRKELQELSSSIKDLVLKSRKSSVTEE
Regarding B2, the binding result in assay [1] and in assay [2] was “binds” in each case.

B3: UMPS (other, human, UniProt P11172 2-480, looked up)
chain: AVARAALGPLVTGLYDVQAFKFGDFVLKSGLSSPIYIDLRGIVSRPRLLSQVADILFQTAQNAGISFDTVCGVPYTALPLATVICSTNQIPMLIRRKETKDYGTKRLVEGTINPGETCLIIEDVVTSGSSVLETVEVLQKEGLKVTDAIVLLDREQGGKDKLQAHGIRLHSVCTLSKMLEILEQQKKVDAETVGRVKRFIQENVFVAANHNGSPLSIKEAPKELSFGARAELPRIHPVASKLLRLMQKKETNLCLSADVSLARELLQLADALGPSICMLKTHVDILNDFTLDVMKELITLAKCHEFLIFEDRKFADIGNTVKKQYEGGIFKIASWADLVNAHVVPGSGVVKGLQEVGLPLHRGCLLIAEMSSTGSLATGDYTRAAVRMAEEHSEFVVGFISGSRVSMKPEFLHLTPGVQLEAGGDNLGQQYNSPQEVIGKRGSDIIIVGRGIISAADRLEAAEMYRKAAWEAYLSRLGV
Take B3: the binding result in assay [1] and in assay [2] was “binds” in each case.

B4: TRIM47 (other, human, UniProt Q96LD4 1-638, looked up)
chain: MDGSGPFSCPICLEPLREPVTLPCGHNFCLACLGALWPHRGASGAGGPGGAARCPLCQEPFPDGLQLRKNHTLSELLQLRQGSGPGSGPGPAPALAPEPSAPSALPSVPEPSAPCAPEPWPAGEEPVRCDACPEGAALPAALSCLSCLASFCPAHLGPHERSPALRGHRLVPPLRRLEESLCPRHLRPLERYCRAERVCLCEACAAQEHRGHELVPLEQERALQEAEQSKVLSAVEDRMDELGAGIAQSRRTVALIKSAAVAERERVSRLFADAAAALQGFQTQVLGFIEEGEAAMLGRSQGDLRRQEEQRSRLSRARQNLSQVPEADSVSFLQELLALRLALEDGCGPGPGPPRELSFTKSSQAVRAVRDMLAVACVNQWEQLRGPGGNEDGPQKLDSEADAEPQDLESTNLLESEAPRDYFLKFAYIVDLDSDTADKFLQLFGTKGVKRVLCPINYPLSPTRFTHCEQVLGEGALDRGTYYWEVEIIEGWVSMGVMAEDFSPQEPYDRGRLGRNAHSCCLQWNGRSFSVWFHGLEAPLPHPFSPTVGVCLEYADRALAFYAVRDGKMSLLRRLKASRPRRGGIPASPIDPFQSRLDSHFAGLFTHRLKPAFFLESVDAHLQIGPLKKSCISVLKRR
Take B4: the binding result in assay [1] and in assay [2] was “binds” in each case.

B5: UBXN6 (other, human, UniProt Q9BZV1 1-441, looked up)
chain: MKKFFQEFKADIKFKSAGPGQKLKESVGEKAHKEKPNQPAPRPPRQGPTNEAQMAAAAALARLEQKQSRAWGPTSQDTIRNQVRKELQAEATVSGSPEAPGTNVVSEPREEGSAHLAVPGVYFTCPLTGATLRKDQRDACIKEAILLHFSTDPVAASIMKIYTFNKDQDRVKLGVDTIAKYLDNIHLHPEEEKYRKIKLQNKVFQERINCLEGTHEFFEAIGFQKVLLPAQDQEDPEEFYVLSETTLAQPQSLERHKEQLLAAEPVRAKLDRQRRVFQPSPLASQFELPGDFFNLTAEEIKREQRLRSEAVERLSVLRTKAMREKEEQRGLRKYNYTLLRVRLPDGCLLQGTFYARERLGAVYGFVREALQSDWLPFELLASGGQKLSEDENLALNECGLVPSALLTFSWDMAVLEDIKAAGAEPDSILKPELLSAIEKLL
B5: the binding result in assay [1] and in assay [2] was “binds” throughout.

B6: UTP6 (other, human, UniProt Q9NYH9 1-597, looked up)
chain: MAEIIQERIEDRLPELEQLERIGLFSHAEIKAIIKKASDLEYKIQRRTLFKEDFINYVQYEINLLELIQRRRTRIGYSFKKDEIENSIVHRVQGVFQRASAKWKDDVQLWLSYVAFCKKWATKTRLSKVFSAMLAIHSNKPALWIMAAKWEMEDRLSSESARQLFLRALRFHPECPKLYKEYFRMELMHAEKLRKEKEEFEKASMDVENPDYSEEILKGELAWIIYKNSVSIIKGAEFHVSLLSIAQLFDFAKDLQKEIYDDLQALHTDDPLTWDYVARRELEIESQTEEQPTTKQAKAVEVGRKEERCCAVYEEAVKTLPTEAMWKCYITFCLERFTKKSNSGFLRGKRLERTMTVFRKAHELKLLSECQYKQLSVSLLCYNFLREALEVAVAGTELFRDSGTMWQLKLQVLIESKSPDIAMLFEEAFVHLKPQVCLPLWISWAEWSEGAKSQEDTEAVFKKALLAVIGADSVTLKNKYLDWAYRSGGYKKARAVFKSLQESRPFSVDFFRKMIQFEKEQESCNMANIREYYERALREFGSADSDLWMDYMKEELNHPLGRPENCGQIYWRAMKMLQGESAEAFVAKHAMHQTGHL
For the molecule B6, the binding result in assay [1] and in assay [2] was “binds” each time.
